Data taken from PMC10963267 (2023).
Changes are numbered by the printed parent chain. Names may count otherwise.

B1: HER20015 (peptide)
chain: HDVGYCDTPTCDKWPEYFQH
B2: HER20016 (peptide)
chain: HDVGPCDTSTCAKWPEYFQH
B3: HER20005 (peptide)
chain: HDVAYCDTPTCAKWPEYFQH
B4: HER20017 (peptide)
chain: HDVGQCDSSNCAAWPEYFQH
B5: HER20026 (peptide)
chain: HDVGYCDSSMCQMWPEYFQH
B6: HER20021 (peptide)
chain: HDTGYCDTPTCAKWPEYFQH
B7: HER20003 (peptide)
chain: HDVAYCSSSRCLTWPEYFQH
B8: HER20006 (peptide)
chain: HDVGWCTSSNCAKWPEYFQH
B9: HER20010 (peptide)
chain: HDVAYCSSSRCLDWPEYFQH
B10: HER20023 (peptide)
chain: HDVGYCDTESCEKWPEYFQH
B11: HER20022 (peptide)
chain: HDVGYCDTPTCATWPEQFDH
B12: HER20020 (peptide)
chain: HDVGYCDTPTCDKWPEYFTH
B13: HER20014 (peptide)
chain: HDVAYCDDPTCAYWPEYFQH
B14: HER20004 (peptide)
chain: HDVGQCDSSNCAKWPEYFQH
B15: HER20009 (peptide)
chain: HDVAYCSSSRCLEWPEYFQH
B16: HER20008 (peptide)
chain: HDVAYCDSDRCAKWPEYFQH
B17: HER20002 (peptide)
chain: HDVGYCSSSNCAKWPEYFQH
B18: HER20012 (peptide)
chain: HDVGYCSSHRCETWPEYFQH
B19: HER20019 (peptide)
chain: HDVGQCDSSNCATWPEYFQH
B20: HER20018 (peptide)
chain: HDVGYCSESACQQWPEYFQH
B21: HER20007 (peptide)
chain: HDVGYCMSSNCAKWPEYFQH
B22: anti-HER2 Fab G98A (Fab, V domains shown)
VH: QVQLVQSGAEVKKPGESLKISCKGSGYSFTSYWIAWVRQMPGKGLEYMGLIYPGDSDTKYSPSFQGQVTISVDKSVSTAYLQWSSLKPSDSAVYFCARHDVAYCSSSNCAKWPEYFQHWGQGTLVTVSS
VL: QSVLTQPPSVSAAPGQKVTISCSGSSSNIGNNYVSWYQQLPGTAPKLLIYGHTNRPAGVPDRFSGSKSGTSASLAISGFRSEDEADYYCASWDYTLSGWVFGGGTKLTVL
B23: anti-HEL nanobody C1 (VHH)
VHH: QVQLQESGGGLVQAGGSLRLSCAASGSIFWAGYMGWYRQAPGKEREFVAAIDYGANTYYADSVKGRFTISRDNAKNTVYLQMNSLKPEDTAVYYCAVDRQPYYRRDNSHLYWGQGTQVTVSS
B24: anti-HEL nanobody M15, ribosome-displayed on the flow cell (VHH)
VHH: QVQLQESGGGLVQAGGSLRLSCAASGTISSQKLMGWYRQAPGKEREFVAAINDGATTNYADSVKGRFTISRDNAKNTVYLQMNSLKPEDTAVYYCAAYYDVRGYYWGTFGYWGQGTQVTVSS
B25: anti-HEL nanobody C2 (VHH)
VHH: QVQLQESGGGLVQAGGSLRLSCAASGNISADASMGWYRQAPGKEREFVAAIARGATTYYADSVKGRFTISRDNAKNTVYLQMNSLKPEDTAVYYCAVDQYDVTKRYIGHIYWGQGTQVTVSS
B26: anti-HEL nanobody M5, ribosome-displayed on the flow cell (VHH)
VHH: QVQLQESGGGLVQAGGSLRLSCAASGSIFYYTDMGWYRQAPGKEREFVASIGYGGITYYADSVKGRFTISRDNAKNTVYLQMNSLKPEDTAVYYCAVQRSFESYGYWGHVYWGQGTQVTVSS
B27: anti-HEL nanobody M6, ribosome-displayed on the flow cell (VHH)
VHH: B26 VHH with F29S, Y30R, Y31D, T32P, G52S, Y53G, G55T, I56T
B28: anti-HER2 Fab HER20006 (Fab, V domains shown)
VH: B22 VH with A102G, Y103W, S105T
VL: B22 VL
B29: anti-HER2 scFv G98A, ribosome-displayed on the flow cell (scFv, V domains shown)
VH: B22 VH
VL: B22 VL
B30: HER20013 (peptide)
chain: HDVGYCSTSRCLTWPEYFQH
B31: HER20024 (peptide)
chain: HDVGQCDSSNCETWPEYFQH
B32: HER20011 (peptide)
chain: HDVGLCSSSNCAKWPEYFQH
B33: HER20025 (peptide)
chain: HDVGYCDTPTCNKWPEYFQH
B34: anti-HER2 Fab HER20010 (Fab, V domains shown)
VH: B22 VH with N108R, A110L, K111D
VL: B22 VL
B35: anti-HER2 Fab HER20009 (Fab, V domains shown)
VH: B22 VH with N108R, A110L, K111E
VL: B22 VL
B36: anti-HER2 Fab HER20008 (Fab, V domains shown)
VH: B22 VH with S105D, S107D, N108R
VL: B22 VL
B37: anti-HER2 Fab HER20015 (Fab, V domains shown)
VH: B22 VH with A102G, S105D, S106T, S107P, N108T, A110D
VL: B22 VL
B38: anti-HER2 Fab HER20007 (Fab, V domains shown)
VH: B22 VH with A102G, S105M
VL: B22 VL
B39: anti-HER2 Fab HER20011 (Fab, V domains shown)
VH: B22 VH with A102G, Y103L
VL: B22 VL

Target: T1, HER2 extracellular domain (Homo sapiens, UniProt P04626)
Test: Octet

Question: With B1 as the binder, how does the Kd read?
Answer: 0.2 nM

Question: For B2, which Kd is on record?
Answer: 1.41 nM

Question: With B3 as the binder, how does the Kd read?
Answer: 1.86 nM

Question: With B4 as the binder, how does the Kd read?
Answer: 1.46 nM

Question: With B5 as the binder, how does the Kd read?
Answer: 0.465 nM

Question: Which Kd does the source give for B6 here?
Answer: 0.215 nM

Question: For B7, which Kd is on record?
Answer: 2.88 nM

Question: Which Kd does the source give for B8 here?
Answer: 0.85 nM

Question: For B9, which Kd is on record?
Answer: 1.06 nM

Question: With B10 as the binder, how does the Kd read?
Answer: 0.578 nM

Question: Which Kd does the source give for B11 here?
Answer: 0.183 nM

Question: How did the Kd turn out when B12 was run?
Answer: 0.294 nM

Question: Which Kd does the source give for B13 here?
Answer: 0.996 nM

Question: B14 was tested. Which Kd did it give?
Answer: 3.44 nM

Question: For B15, which Kd is on record?
Answer: 1.04 nM

Question: Which Kd does the source give for B16 here?
Answer: 2.68 nM

Question: B17 was tested. Which Kd did it give?
Answer: 1.65 nM

Question: How did the Kd turn out when B18 was run?
Answer: 0.591 nM

Question: With B19 as the binder, how does the Kd read?
Answer: 0.79 nM

Question: For B20, which Kd is on record?
Answer: 2.26 nM

Question: For B21, which Kd is on record?
Answer: 2.08 nM

Target: T2, human epidermal growth factor receptor 2 (HER2), biotinylated (human, UniProt P04626 23-652, biotin)
Test: SPR

Question: B22 was tested. Which Kd did it give?
Answer: 320 nM

Target: T3, hen egg lysozyme (HEL), biotinylated (hen, UniProt P00698 19-147, biotin)
Test: deep screening KDapp

T3 sequence (P00698 19-147): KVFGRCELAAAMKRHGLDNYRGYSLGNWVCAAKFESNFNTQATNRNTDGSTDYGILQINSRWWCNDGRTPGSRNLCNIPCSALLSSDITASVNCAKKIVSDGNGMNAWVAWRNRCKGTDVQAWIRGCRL

Question: B23 was tested. Which Kd did it give?
Answer: 11900 nM

Question: With B24 as the binder, how does the Kd read?
Answer: 64.4 nM

Question: How did the Kd turn out when B25 was run?
Answer: 11900 nM

Question: How did the Kd turn out when B26 was run?
Answer: 106 nM

Question: With B27 as the binder, how does the Kd read?
Answer: 63.6 nM

Target: T2, human epidermal growth factor receptor …
Test: BLI

Question: How did the Kd turn out when B28 was run?
Answer: 0.85 nM

Target: T2, human epidermal growth factor receptor …
Test: not given

Question: Which Kd does the source give for B29 here?
Answer: 24 nM

Target: T1, HER2 extracellular domain
Test: flow

Question: How did the “apparent Kd (screen)” value turn out when B1 was run?
Answer: 31 nM

Question: B2 was tested. Which “apparent Kd (screen)” value did it give?
Answer: 106 nM

Question: Which “apparent Kd (screen)” value does the source give for B4 here?
Answer: 1350 nM

Question: For B5, which “apparent Kd (screen)” value is on record?
Answer: 4.78 nM

Question: Which “apparent Kd (screen)” value does the source give for B6 here?
Answer: 17.7 nM

Question: B8 was tested. Which “apparent Kd (screen)” value did it give?
Answer: 151 nM

Question: Which “apparent Kd (screen)” value does the source give for B9 here?
Answer: 17.7 nM

Question: For B30, which “apparent Kd (screen)” value is on record?
Answer: 10 nM

Question: Which “apparent Kd (screen)” value does the source give for B31 here?
Answer: 17.9 nM

Question: With B10 as the binder, how does the “apparent Kd (screen)” value read?
Answer: 31.6 nM

Question: With B11 as the binder, how does the “apparent Kd (screen)” value read?
Answer: 14.8 nM

Question: B12 was tested. Which “apparent Kd (screen)” value did it give?
Answer: 14.3 nM

Question: B32 was tested. Which “apparent Kd (screen)” value did it give?
Answer: 40.6 nM

Question: With B13 as the binder, how does the “apparent Kd (screen)” value read?
Answer: 65.9 nM

Question: With B15 as the binder, how does the “apparent Kd (screen)” value read?
Answer: 11.2 nM

Question: B16 was tested. Which “apparent Kd (screen)” value did it give?
Answer: 44.5 nM

Question: For B17, which “apparent Kd (screen)” value is on record?
Answer: 19.4 nM

Question: How did the “apparent Kd (screen)” value turn out when B18 was run?
Answer: 74.2 nM

Question: With B19 as the binder, how does the “apparent Kd (screen)” value read?
Answer: 19.6 nM

Question: With B33 as the binder, how does the “apparent Kd (screen)” value read?
Answer: 8.78 nM

Question: Which “apparent Kd (screen)” value does the source give for B20 here?
Answer: 24.4 nM

Question: Which “apparent Kd (screen)” value does the source give for B21 here?
Answer: 41.1 nM

Target: T2, human epidermal growth factor receptor …
Test: SPR
Remark: another data set of the same source

Question: B29 was tested. Which Kd did it give?
Answer: 320 nM

Target: T3, hen egg lysozyme (HEL), biotinylated
Test: BLI

Question: Which Kd does the source give for B23 here?
Answer: 67.4 nM

Question: B25 was tested. Which Kd did it give?
Answer: 59.8 nM

Target: T2, human epidermal growth factor receptor …
Test: BLI
Remark: another data set of the same source

Question: B34 was tested. Which Kd did it give?
Answer: 1.06 nM

Question: For B35, which Kd is on record?
Answer: 1.04 nM

Question: With B36 as the binder, how does the Kd read?
Answer: 2.68 nM

Question: With B37 as the binder, how does the Kd read?
Answer: 0.2 nM

Question: For B38, which Kd is on record?
Answer: 2.08 nM

Question: How did the Kd turn out when B39 was run?
Answer: 5.25 nM
